Assay results: patent publication EP2149585A1

How the values were obtained:
[1] = molecular target: human CD40 on the cell surface (human) (UniProt P25942); experiment: cell-based or functional assay
[2] = molecular target: CD20 on the cell surface (human) (UniProt P11836); experiment: cell-based or functional assay
CD20 on the cell surface (human), sequence (P11836 whole entry): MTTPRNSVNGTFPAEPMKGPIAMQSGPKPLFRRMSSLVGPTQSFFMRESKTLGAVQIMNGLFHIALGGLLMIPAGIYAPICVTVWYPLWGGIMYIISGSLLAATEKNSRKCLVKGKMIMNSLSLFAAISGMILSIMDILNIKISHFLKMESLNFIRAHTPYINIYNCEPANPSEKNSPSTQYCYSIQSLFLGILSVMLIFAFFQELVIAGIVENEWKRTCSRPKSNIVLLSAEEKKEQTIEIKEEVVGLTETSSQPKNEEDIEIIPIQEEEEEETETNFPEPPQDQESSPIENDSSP

human CD40 on the cell surface (human), sequence (P25942 20-277): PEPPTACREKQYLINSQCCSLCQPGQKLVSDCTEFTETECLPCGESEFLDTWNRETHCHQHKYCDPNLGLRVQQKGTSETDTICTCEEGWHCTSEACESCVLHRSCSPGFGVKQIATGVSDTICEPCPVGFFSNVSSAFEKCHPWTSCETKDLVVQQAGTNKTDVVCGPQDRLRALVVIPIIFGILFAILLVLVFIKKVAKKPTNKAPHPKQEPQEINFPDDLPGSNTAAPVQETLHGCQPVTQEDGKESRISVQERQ

How did the average stimulation index (SI) of PBMC proliferation [1] turn out when “CD40 ligand on formaldehyde-fixed CHO cells (from UniProt P29965 1-261)” was run?
The average stimulation index (SI) of PBMC proliferation was 7.41.

How did the % lysis - % lysis IgG1; ADCC-006, huNK E:T 2, 0.01 ug/ml [2] turn out when rituximab (antibody) was run?
The % lysis - % lysis IgG1; ADCC-006, huNK E:T 2, 0.01 ug/ml was 33%.

What about the % lysis - % lysis IgG1; ADCC-006, huNK E:T 2, 0.1 ug/ml [2] of the same substance?
Its % lysis - % lysis IgG1; ADCC-006, huNK E:T 2, 0.1 ug/ml is 44.6%.

And the % lysis - % lysis IgG1; ADCC-006, huNK E:T 2, 1 ug/ml [2]?
Its % lysis - % lysis IgG1; ADCC-006, huNK E:T 2, 1 ug/ml is 45.7%.

What about the % lysis - % lysis IgG1; ADCC-006, huNK E:T 2, 10 ug/ml [2] of the same substance?
Its % lysis - % lysis IgG1; ADCC-006, huNK E:T 2, 10 ug/ml is 37.9%.

And the % lysis - % lysis IgG1; ADCC-009 Calcein AM, huNK E:T 10, 0.04 ug/ml [2]?
Its % lysis - % lysis IgG1; ADCC-009 Calcein AM, huNK E:T 10, 0.04 ug/ml is 81.5%.

What about the % lysis - % lysis IgG1; ADCC-009 Calcein AM, huNK E:T 10, 0.2 ug/ml [2] of the same substance?
Its % lysis - % lysis IgG1; ADCC-009 Calcein AM, huNK E:T 10, 0.2 ug/ml is 90.2%.

And the % lysis - % lysis IgG1; ADCC-009 Calcein AM, huNK E:T 10, 1 ug/ml [2]?
Its % lysis - % lysis IgG1; ADCC-009 Calcein AM, huNK E:T 10, 1 ug/ml is 87.7%.

And the % lysis - % lysis IgG1; ADCC-009 Calcein AM, huNK E:T 10, 5 ug/ml [2]?
Its % lysis - % lysis IgG1; ADCC-009 Calcein AM, huNK E:T 10, 5 ug/ml is 83.9%.

What about the % lysis - % lysis IgG1; ADCC-011 Calcein AM, huNK E:T 8, 0.0004 ug/ml [2] of the same substance?
Its % lysis - % lysis IgG1; ADCC-011 Calcein AM, huNK E:T 8, 0.0004 ug/ml is -1.04%.

And the % lysis - % lysis IgG1; ADCC-011 Calcein AM, huNK E:T 8, 0.002 ug/ml [2]?
Its % lysis - % lysis IgG1; ADCC-011 Calcein AM, huNK E:T 8, 0.002 ug/ml is 4.16%.

And the % lysis - % lysis IgG1; ADCC-011 Calcein AM, huNK E:T 8, 0.01 ug/ml [2]?
Its % lysis - % lysis IgG1; ADCC-011 Calcein AM, huNK E:T 8, 0.01 ug/ml is 10.1%.

What about the % lysis - % lysis IgG1; ADCC-011 Calcein AM, huNK E:T 8, 1 ug/ml [2] of the same substance?
The % lysis - % lysis IgG1; ADCC-011 Calcein AM, huNK E:T 8, 1 ug/ml was 19.3%.

And the % lysis - % lysis IgG1; ADCC-012 Calcein AM, huNK E:T 10, 0.001 ug/ml [2]?
Its % lysis - % lysis IgG1; ADCC-012 Calcein AM, huNK E:T 10, 0.001 ug/ml is 21.1%.

What about the % lysis - % lysis IgG1; ADCC-012 Calcein AM, huNK E:T 10, 0.005 ug/ml [2] of the same substance?
The % lysis - % lysis IgG1; ADCC-012 Calcein AM, huNK E:T 10, 0.005 ug/ml was 25.7%.

And the % lysis - % lysis IgG1; ADCC-012 Calcein AM, huNK E:T 10, 0.01 ug/ml [2]?
Its % lysis - % lysis IgG1; ADCC-012 Calcein AM, huNK E:T 10, 0.01 ug/ml is 37.9%.

What about the % lysis - % lysis IgG1; ADCC-012 Calcein AM, huNK E:T 10, 1 ug/ml [2] of the same substance?
The % lysis - % lysis IgG1; ADCC-012 Calcein AM, huNK E:T 10, 1 ug/ml was 52.5%.

And the % lysis - % lysis IgG1; ADCC-012 Calcein AM, huNK E:T 10, 10 ug/ml [2]?
The % lysis - % lysis IgG1; ADCC-012 Calcein AM, huNK E:T 10, 10 ug/ml was 37.4%.

And the % lysis - % lysis IgG1; ADCC-013 51Cr, PBMC E:T 100, 0.001 ug/ml [2]?
The % lysis - % lysis IgG1; ADCC-013 51Cr, PBMC E:T 100, 0.001 ug/ml was 0.35%.

And the % lysis - % lysis IgG1; ADCC-013 51Cr, PBMC E:T 100, 0.01 ug/ml [2]?
Its % lysis - % lysis IgG1; ADCC-013 51Cr, PBMC E:T 100, 0.01 ug/ml is 9.87%.

What about the % lysis - % lysis IgG1; ADCC-013 51Cr, PBMC E:T 100, 0.1 ug/ml [2] of the same substance?
Its % lysis - % lysis IgG1; ADCC-013 51Cr, PBMC E:T 100, 0.1 ug/ml is 24.7%.

What about the % lysis - % lysis IgG1; ADCC-013 51Cr, PBMC E:T 100, 1 ug/ml [2] of the same substance?
Its % lysis - % lysis IgG1; ADCC-013 51Cr, PBMC E:T 100, 1 ug/ml is 29.7%.

And the % lysis; ADCC-006, huNK E:T 2, 0.01 ug/ml [2]?
Its % lysis; ADCC-006, huNK E:T 2, 0.01 ug/ml is 28.5%.

What about the % lysis; ADCC-006, huNK E:T 2, 0.1 ug/ml [2] of the same substance?
Its % lysis; ADCC-006, huNK E:T 2, 0.1 ug/ml is 33.6%.

What about the % lysis; ADCC-006, huNK E:T 2, 1 ug/ml [2] of the same substance?
The % lysis; ADCC-006, huNK E:T 2, 1 ug/ml was 37.1%.

What about the % lysis; ADCC-006, huNK E:T 2, 10 ug/ml [2] of the same substance?
Its % lysis; ADCC-006, huNK E:T 2, 10 ug/ml is 34.8%.

What about the % lysis; ADCC-009 Calcein AM, huNK E:T 10, 0.04 ug/ml [2] of the same substance?
Its % lysis; ADCC-009 Calcein AM, huNK E:T 10, 0.04 ug/ml is 84.9%.

And the % lysis; ADCC-009 Calcein AM, huNK E:T 10, 0.2 ug/ml [2]?
Its % lysis; ADCC-009 Calcein AM, huNK E:T 10, 0.2 ug/ml is 88.8%.

What about the % lysis; ADCC-009 Calcein AM, huNK E:T 10, 1 ug/ml [2] of the same substance?
Its % lysis; ADCC-009 Calcein AM, huNK E:T 10, 1 ug/ml is 88.2%.

What about the % lysis; ADCC-011 Calcein AM, huNK E:T 8, 0.0004 ug/ml [2] of the same substance?
Its % lysis; ADCC-011 Calcein AM, huNK E:T 8, 0.0004 ug/ml is 5.99%.

And the % lysis; ADCC-011 Calcein AM, huNK E:T 8, 0.002 ug/ml [2]?
The % lysis; ADCC-011 Calcein AM, huNK E:T 8, 0.002 ug/ml was 9.58%.

What about the % lysis; ADCC-011 Calcein AM, huNK E:T 8, 0.01 ug/ml [2] of the same substance?
Its % lysis; ADCC-011 Calcein AM, huNK E:T 8, 0.01 ug/ml is 14.7%.

And the % lysis; ADCC-011 Calcein AM, huNK E:T 8, 1 ug/ml [2]?
Its % lysis; ADCC-011 Calcein AM, huNK E:T 8, 1 ug/ml is 22.4%.

What about the % lysis; ADCC-012 Calcein AM, huNK E:T 10, 0.001 ug/ml [2] of the same substance?
The % lysis; ADCC-012 Calcein AM, huNK E:T 10, 0.001 ug/ml was 33.1%.

What about the % lysis; ADCC-012 Calcein AM, huNK E:T 10, 0.005 ug/ml [2] of the same substance?
The % lysis; ADCC-012 Calcein AM, huNK E:T 10, 0.005 ug/ml was 39.3%.

What about the % lysis; ADCC-012 Calcein AM, huNK E:T 10, 0.01 ug/ml [2] of the same substance?
The % lysis; ADCC-012 Calcein AM, huNK E:T 10, 0.01 ug/ml was 50.2%.

And the % lysis; ADCC-012 Calcein AM, huNK E:T 10, 1 ug/ml [2]?
Its % lysis; ADCC-012 Calcein AM, huNK E:T 10, 1 ug/ml is 66%.

And the % lysis; ADCC-012 Calcein AM, huNK E:T 10, 10 ug/ml [2]?
The % lysis; ADCC-012 Calcein AM, huNK E:T 10, 10 ug/ml was 50.8%.

What about the % lysis; ADCC-013 51Cr, PBMC E:T 100, 0.001 ug/ml [2] of the same substance?
Its % lysis; ADCC-013 51Cr, PBMC E:T 100, 0.001 ug/ml is 3.13%.

And the % lysis; ADCC-013 51Cr, PBMC E:T 100, 0.01 ug/ml [2]?
The % lysis; ADCC-013 51Cr, PBMC E:T 100, 0.01 ug/ml was 12.8%.

What about the % lysis; ADCC-013 51Cr, PBMC E:T 100, 0.1 ug/ml [2] of the same substance?
The % lysis; ADCC-013 51Cr, PBMC E:T 100, 0.1 ug/ml was 27.2%.

And the % lysis; ADCC-013 51Cr, PBMC E:T 100, 1 ug/ml [2]?
Its % lysis; ADCC-013 51Cr, PBMC E:T 100, 1 ug/ml is 32.3%.

And the Average % lysis at 1 ug/ml concentration of mAbs (% lysis - % lysis IgG1) [2]?
The Average % lysis at 1 ug/ml concentration of mAbs (% lysis - % lysis IgG1) was 47.2%.
